The experiment has as its target PTPRD/S (signal of the anti-PTPR blot in BN-PAGE). As to the kind of experiment: native gel or EMSA.

The substance tetraspanin T178B (natural protein) displayed a stoichiometry N of 1.

A word on the stoichiometry N: it is a count of units in the complex or per binding partner.
